Biological target: 14-3-3γ (UniProt P61982)
Test: anti-Flag co-IP, anti-HA blot
Details: reference: wild-type HA-TMCC3-D1; sites S15

binding against the reference: weaker
Substance: TMCC3 TMCC3-D1, 1-210 (from UniProt Q8R310) HA-TMCC3-D1-S15A

From PMC9860497
